Values joined by “and” are separate entries in the source; they are usually repeats but may differ in a detail not shown here. Equal entries are not always repeated.
Molecular target: T1, human TGF-βRII on cells (SBE-bla HEK 293T cells; A549 cells) (human, UniProt P37173 23-567)
Experiment: cell-based or functional assay

T1 sequence (P37173 23-567): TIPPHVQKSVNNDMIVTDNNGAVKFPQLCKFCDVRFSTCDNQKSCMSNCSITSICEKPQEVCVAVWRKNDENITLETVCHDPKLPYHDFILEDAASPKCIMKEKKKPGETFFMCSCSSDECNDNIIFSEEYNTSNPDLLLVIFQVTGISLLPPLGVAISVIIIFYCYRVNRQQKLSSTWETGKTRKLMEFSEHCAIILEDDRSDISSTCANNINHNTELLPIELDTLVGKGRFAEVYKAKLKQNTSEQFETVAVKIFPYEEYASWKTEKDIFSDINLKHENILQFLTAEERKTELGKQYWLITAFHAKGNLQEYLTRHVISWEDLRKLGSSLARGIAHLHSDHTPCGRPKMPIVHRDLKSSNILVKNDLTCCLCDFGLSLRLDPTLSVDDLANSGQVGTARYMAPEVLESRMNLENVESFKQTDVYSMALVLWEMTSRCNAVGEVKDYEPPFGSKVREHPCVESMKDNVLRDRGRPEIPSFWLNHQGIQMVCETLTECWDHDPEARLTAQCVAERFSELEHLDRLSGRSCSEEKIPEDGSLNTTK

Binder | IC50 nM, Mean (SBE-bla HEK 293T cell sensor assay, h2)
DOM23h-802 (VHH, not shown: small tags and cut ends) VHH: EVQLLESGGGLVQPGGSLRLSCAASGFTFSEGTMWWVRQAPGKGLEWVSAILAAGSNTYYADSVKGRFTISRDNSKNTLYLQMNSLRAEDTAVYYCAKKRQERDGFDYWGQGTLVTVSS | > 11100 nM
DOM23h-803 (VHH, not shown: small tags and cut ends) VHH: EVQLLESGGGLVQPGGSLRLSCAASGFTFSAGRMWWVRQAPGKGLEWVSAINRDGTRTYYADSVKGRFTISRDNSKNTLYLQMNSLRAEDTAVYYCAKHDDGHGNFDYWGQGTLVTVSS | > 11600 nM
DOM23h-813 (VHH, not shown: small tags and cut ends) VHH: EVQLLESGGGLVQPGGSLRLSCAASGSTFTDDRMWWVRQAPGKGLEWVSAIQPDGHTTYYADSVKGRFTISRDNSKNTLYLQMNSLRAEDTAVYYCAEQDVKGSSSFDYWGQGTLVTVSS | > 9330 nM
DOM23h-815 (VHH, not shown: small tags and cut ends) VHH: EVQLLESGGGLVQPGGSLRLSCAASGFTFAEDRMWWVRQAPGKGLEWVSAIDPQGQHTYYADSVKGRFTISRDNSKNTLYLQMNSLRAEDTAVYYCAKQSTGSATSDYWGQGTLVTVSS | 7120 nM
DOM23h-828 (VHH, not shown: small tags and cut ends) VHH: EVQLLESGGGLVQPGGSLRLSCAASGFTFMSYRMWWVRQAPGKGLEWVSAISPSGSDTYYADSVKGRFTISRDNSKNTLYLQMNSLRAEDTAVYYCAKQVVEYSRTHKGVFDYWGQGTLVTVSS | 9900 nM
DOM23h-830 (VHH, not shown: small tags and cut ends) VHH: EVQLLESGGGLVQPGGFLRLSCAASGFTFEGYRMWWVRQAPGKGLEWVSAIDSLGDRTYYADSVKGRFTISRDNSKNTLYLQMNSLRAEDTAVYYCAKQGLTHQSPSTFDYWGQGTLVTVSS | 6300 nM
DOM23h-883 (VHH, not shown: small tags and cut ends) VHH: EVQLLESGGGLVQPGGSLRLSCAASGFTFVNYRMWWVRQAPGKGLEWVSAISGSGDKTYYADSVKGRFTISRDNSKNTLYLQMNSLRAEDTAVYYCAKHGLSFDYWGQGTLVTVSS | 10100 nM
DOM23h-831 (VHH, not shown: small tags and cut ends) VHH: EVQLLESGGGLVQPGGSLRLSCAASGFTFEAYKMTWVRQAPGKGLEWVSYITPSGGQTYYADSVKGRFTISRDNSKNTLYLQMNSLRAEDTAVYYCAKYGSSFDYWGQGTLVTVSS | > 3130 nM
DOM23h-903 (VHH, not shown: small tags and cut ends) VHH: EVQLLESGGGLVQPGGSLRLSCAASGFTFNDMRMWWVRQAPGKGLEWVSVINADGNRTYYADSVKGRFTISRDNSKNTLYLQMNSLRAEDTAVYYCAKDGLPFDYWGQGTLVTVSS | 1050 nM
DOM23h-840 (VHH, not shown: small tags and cut ends) VHH: EVQLLESGGGLVQPGGSLRLSCAASGFTFGDGRMWWVRQAPGKGLEWVSAIEGAGSDTYYADSVKGRFTISRDNSKNTLYLQMNSLRAEDTAVYYCAKQASRNSPFDYWGQGTLVTVSS | 2920 nM
DOM23h-842 (VHH, not shown: small tags and cut ends) VHH: EVQLLESGGGLVQPGGSLRLSCAASGFTFDDSEMAWARQAPGKGLEWVSLIRRNGNATYYADSVKGRFTISRDNSKNTLYLQMNSLRAEDTAVYYCAKVTKDRSVLFDYWGQGTLVTVSS | 2040 nM
DOM23h-850 (VHH, not shown: small tags and cut ends) VHH: EVQLLESGGGLVQPGGSLRLSCAASGFTFDAARMWWARQAPGKGLEWVSAIADIGNTTYYADSVKGRFTISRDNSKNTLYLQMNSLRAEDTAVYYCAKQSGSEDHFDYWGQGTLVTVSS | 5350 nM
DOM23h-854 (VHH, not shown: small tags and cut ends) VHH: EVQLLESGGGLVQPGGSLRLSCAASGFTFAQDRMWWVRQAPGKGLEWVSAISGSGGSTYYADSVKGRFTISRDNSKNTLYLQMNSLRAEDTAVYYCAKQDLHGTSSLFDYWGQGTLVTVSS | > 9550 nM
DOM23h-865 (VHH, not shown: small tags and cut ends) VHH: EVQLLESGGGLVQPGGSLRLSCAASGFTFRSYEMTWVRQAPGKGLEWVSKIDPSGRFTYYADSVKGRFTISRDNSKNTLYLQMNSLRAEDTAVYYCAKGRTDLQLFDYWGQGTLVTVSS | 5560 nM
DOM23h-866 (VHH, not shown: small tags and cut ends) VHH: EVQLLESGGGLVQPGGSLRLSCAASGFTFSNYWMRWARQAPGKGLEWVSYITPKGDHTYYADSVKGRFTISRDNSKNTLYLQMNSLRAEDTAVYYCAESLHNERVKHFDYWGQGTLVTVSS | > 1760 nM
DOM23h-874 (VHH, not shown: small tags and cut ends) VHH: EVQLLESGGGLVQPGGSLRLSCAASGFTFTSYRMWWVRQAPGKGLEWVSVIDSTGSATYYADSVKGRFTISRDNSKNTLYLQMNSLRAEDTAVYYCAKQQAGSAMGEFDYWGQGTLVTVSS | > 925 nM

Molecular target: T1, human TGF-βRII on cells (SBE-bla HEK …)
Experiment: cell-based or functional assay
Remark: another data set of the same source

Binder | IC50 nM, Mean (SBE-bla HEK 293T cell sensor assay)
DOM23h-439-25 (VHH, expressed from pC10) VHH: EVQLLESGGGLVQPGGSLRLSCAASGFTFGTEQMWWVRQAPGKGLEFVSRIDSPGGRTYYADSVKGRFTISRDNSKNTLYLQMNSLRAEDTAVYYCAKRRPTGVSGTFYDYWGQGTLVTVSS | 4 nM
DOM23h-439-35 (VHH, expressed from pC10) VHH: EVQLLESGGGLVQPGGSLRLSCAASGFTFGTDQMWWVRQAPGKGLEFVSRIDSPGGRTYYANSVKGRFTISRDNSKNTLYLQMNSLRAEDTAVYYCAKRQPAGVSGKYVDYWGQGTLVTVSS | 0.5 nM

Molecular target: T2, recombinant human TGF-β RII/Fc chimera protein (human, UniProt P37173 24-159)
T2 construct: range 24-159; Made in HEK-F cells; Biotinylated where it was put on SA chips, otherwise captured by anti-human IgG; also called human TGFbRII/Fc; hRII-Fc; not shown: Fc region of human IgG1
T2 sequence (P37173 24-159 limits assumed, change not shown): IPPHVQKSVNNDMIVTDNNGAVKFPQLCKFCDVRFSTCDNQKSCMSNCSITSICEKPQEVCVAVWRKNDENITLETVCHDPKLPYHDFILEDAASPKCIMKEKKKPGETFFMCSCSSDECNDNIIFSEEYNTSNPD
Experiment: SPR Biacore T100, human TGFbRII-FC, 1:1 model
Experimental: Triplet or doped libraries in separate CDR1, CDR2 and CDR3 pools were subjected to rounds of phage selection as described above against either biotinylated human TGF-β RII/Fc antigen over 4 rounds in concentrations of 10 nM, 1 nM, 100 pM and 20 pM respectively, or two rounds of selection using 20 pM followed by 2 pM antigen. Inserts from phage selections were cloned into the pDOM10 expression vector and supernatants with off rates improved over parent were selected for further study. Domain antibodies were expressed and purified their affinity and bioactivity against human TGF-β RII/Fc antigen tested on the BIACORE™ T100 and in the Cell sensor assay described above (data not shown).
BIACORE™ analysis was carried out using a capture surface on a CM4 chip. Anti-human IgG was used as the capturing agent and coupled to a CM4 biosensor chip by primary amine coupling. The Antigen molecule fused to the human Fc was captured on this immobilised surface to a level from 250 to 300 resonance units and defined concentrations of Domain antibodies diluted in running buffer were passed over this captured surface. An injection of buffer over the captured antigen surface was used for double referencing. […] All runs were carried out at 25° C. using HBS-EP buffer as running buffer. Data were generated using the BIACORE™ T100 and fitted to the 1:1 binding model inherent to the software.

Binder | Kd | koff | kon
DOM23h-271-101 (VHH, human VH dAb from phage display maturation of DOM23h-271-7; not shown: C-terminal FLAG tag from vector pDOM10) VHH: EVQLLESGGGLVQPGGSLRLSCAASGFTFTEYRMWWVRQAPGKGLEWVSAIEPIGNRTYYADSVKGRFTISRDNSKNTLYLQMNSLRAEDTAVYYCAKQIPGRKWTANGRKDYWGQGTLVTVSS | 5.4 nM | 0.0201 s⁻¹ | 3.73e+06 M⁻¹ s⁻¹
DOM23h-271-102 (VHH, human VH dAb from phage display maturation of DOM23h-271-7; not shown: C-terminal FLAG tag from vector pDOM10) VHH: EVQLLESGGGLVQPGGSLRLSCAASGSTFTEYRMWWVRQAPGKGLEWVSAIEPIGHRTYYADSVKGRFTISRDNSKNTLYLQMNSLRAEDTAVYYCAKQIPGRKWTANSRFDYWGQGTLVTVSS | 1.64 nM | 0.0153 s⁻¹ | 9.35e+06 M⁻¹ s⁻¹
DOM23h-271-105 (VHH, human VH dAb from phage display maturation of DOM23h-271-7; not shown: C-terminal FLAG tag from vector pDOM10) VHH: EVQLLESGGGLVQPGGSLRLSCAASGFTFTEYRMWWVRQAPGKGLEWVSAIEPIGNRTYYADSVKGRFTISRDNSKNTLYLQMNSLRAEDTAVYYCAKQIPGQRWTGNSRFDYWGQGTLVTVSS | 2.27 nM and 2.6 nM | 0.00747 s⁻¹ and 0.00798 s⁻¹ | 3.29e+06 M⁻¹ s⁻¹ and 3.07e+06 M⁻¹ s⁻¹
DOM23h-271-106 (VHH, human VH dAb from phage display maturation of DOM23h-271-7; also called 271-106a; 271-106b; not shown: C-terminal FLAG tag from vector pDOM10) VHH: EVQLLESGGGLVQPGGSLRLSCAASGFTFTEYRMWWVRQAPGKGLEWVSAIEPIGNRTYYADSVKGRFTISRDNSKNTLYLQMNSLRAEDTAVYYCAKQFPGRKWTANSRSDYWGQGTLVTVSS | 3.16 nM and 2.88 nM | 0.0233 s⁻¹ and 0.0195 s⁻¹ | 7.39e+06 M⁻¹ s⁻¹ and 6.77e+06 M⁻¹ s⁻¹
DOM23h-271-114 (VHH, human VH dAb from phage display maturation of DOM23h-271-7; not shown: C-terminal FLAG tag from vector pDOM10) VHH: EVQLLESGGGLVQPGGSLRLSCAASGFTFTEYRMWWVRQAPGKGLEWVSAIEPIGNRTYYADSVKGRFTISRDNSKNTLYLQMNSLRAEDTAVYYCAKQIPGRKGTANSRFDYWGQGTLVTVSS | 6.8 nM | 0.0708 s⁻¹ | 1.04e+07 M⁻¹ s⁻¹

Molecular target: T2, recombinant human TGF-β RII/Fc chimera …
Experiment: SPR Biacore T200, receptor-Fc captured by anti-human IgG, dAb as analyte, 1:1 model
Experimental: (§1) Anti-human IgG was immobilised on a Biacore CM4 chip by primary amine coupling according to the manufacturer's instructions. Human TGF-β RII/Fc, cynomolgus TGF-β RII/Fc or human Fc fragment were captured on this surface. Domain antibodies were passed over the two captured receptors at 3 concentrations of 100, 10 and 1 nM (DOM23h-439 dAbs) or 100, 25 and 6.25 nM (DOM23h-271 dAbs). Only the 100 nM concentration of each dab was passed over human Fc fragment to confirm specificity of binding to the extracellular TGF-β RII domain. An injection of buffer over the captured antigen surface was used for double referencing. […] All runs were carried out at 25° C. using HBS-EP buffer as running buffer. Data were generated using the BIACORE™ T200 and fitted to the 1:1 binding model inherent to the software. […] The DOM23h-271 dAbs and the DOM23h-439 lineages were run in separate experiments.

Binder | Kd | koff | kon
DOM23h-439-25 (VHH, expressed from pC10) VHH: EVQLLESGGGLVQPGGSLRLSCAASGFTFGTEQMWWVRQAPGKGLEFVSRIDSPGGRTYYADSVKGRFTISRDNSKNTLYLQMNSLRAEDTAVYYCAKRRPTGVSGTFYDYWGQGTLVTVSS | 0.0817 nM | 0.000634 s⁻¹ | 7.77e+06 M⁻¹ s⁻¹
DOM23h-439-35 (VHH, expressed from pC10) VHH: EVQLLESGGGLVQPGGSLRLSCAASGFTFGTDQMWWVRQAPGKGLEFVSRIDSPGGRTYYANSVKGRFTISRDNSKNTLYLQMNSLRAEDTAVYYCAKRQPAGVSGKYVDYWGQGTLVTVSS | 0.00983 nM | 0.000222 s⁻¹ | 2.26e+07 M⁻¹ s⁻¹

Molecular target: T3, cynomolgus TGF-β RII/Fc (cynomolgus)
T3 construct: extracellular domain; also called Cyno TGFBRII; Cyno TGFbRII
Experiment: as above
Experimental: as §1

Binder | Kd | koff | kon
DOM23h-439-25 (VHH, expressed from pC10) VHH: EVQLLESGGGLVQPGGSLRLSCAASGFTFGTEQMWWVRQAPGKGLEFVSRIDSPGGRTYYADSVKGRFTISRDNSKNTLYLQMNSLRAEDTAVYYCAKRRPTGVSGTFYDYWGQGTLVTVSS | 0.304 nM | 0.00273 s⁻¹ | 8.99e+06 M⁻¹ s⁻¹
DOM23h-439-35 (VHH, expressed from pC10) VHH: EVQLLESGGGLVQPGGSLRLSCAASGFTFGTDQMWWVRQAPGKGLEFVSRIDSPGGRTYYANSVKGRFTISRDNSKNTLYLQMNSLRAEDTAVYYCAKRQPAGVSGKYVDYWGQGTLVTVSS | 0.0291 nM | 0.000675 s⁻¹ | 2.32e+07 M⁻¹ s⁻¹

— patent US20150361176A1 (GlaxoSmithKline, published 2015)
